Results as given in US6820011B2, “Three-dimensional structure of complement receptor type 2 and uses thereof” (The Regents of the University of Colorado, priority 2001, dated 2004).
Entries after “also recorded” stand apart in the source; their conditions may differ.

Biological target: T1, CR2 (Homo sapiens, UniProt P20023, G20A)
T1 sequence (P20023 20-153 G20A): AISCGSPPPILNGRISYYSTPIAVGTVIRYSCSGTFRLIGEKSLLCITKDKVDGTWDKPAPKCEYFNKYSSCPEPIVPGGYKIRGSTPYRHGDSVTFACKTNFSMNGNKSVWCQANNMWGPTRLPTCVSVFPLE
Experiment: native gel shift assay of the binding between CR2 and C3d wild type or mutants
Settings: for interaction with CR2 (shift of C3d band to the complex form): 6% native polyacrylamide gel, same C3d concentration, increasing amount of CR2, compared with wild type C3d
Description: Based on the complex structure, mutagenesis of C3d around the interface to disrupt CR2 binding was predicted to be difficult. This is because the interaction between CR2 and C3 d involves mostly main-chain H-bonding, and the side chain residues play relatively small roles in the binding. However, to confirm the accuracy of the CR2-C3d interaction seen in this co-crystal structure, two informative C3d mutants were constructed. In mutant 170 (mt170; SEQ ID NO:8), residue Asn170 was changed to Arg. Asn170 is located on H7 of C3d and is the only residue on C3d that more or less points directly toward CR2 in the interface (FIG. 3E). Asn170 also packs directly with Tyr81 of CR2 as well as forms an H-bond with CR2 (Lys100) through a water molecule (FIG. 3E).
Briefly, FIGS. 4A and 4B show a native gel shift assay of the binding between CR2 and C3d wild type (wt) or mutants (mt). […] The C3d band will be shifted to the upper part of the gel when it forms a complex with CR2. The C3d concentration (for both wt and mt) is the same throughout lanes 1-12. The CR2 added to each corresponding lanes for wt and mt C3d was also the same, e.g. same amount of CR2 was added to the C3d samples in lane 2, 6 and 10, or in lanes 4, 8 and 12. […] The same conclusion can be drawn by comparing the intensity of the bands of the complexes containing the wt, mt115 and mt170. FIG. 4B is a graphical representation showing the intensity changes of the complex bands (measured by densitometry) as CR2 concentration increases from lanes 2 to 4 (wt), or lanes 6 to 8 (mt115), or lanes 10 to 12 (mt170).
The result shown in this experiment is consistent with that predicted by the interaction interface seen in the complex structure. […] This is consistent with the complex structure in that all these three residues, even though located within the interface area, have their side chains pointing sideways and are not involved in the direct contact with CR2. The side chain of Glu117, however, participates in the Zn coordination. […] The coordinated Zn in the structure, therefore, could simply come from the crystallization buffer which contained ZnAcetate.

## mt115: C3d mutant Gln105Ala, Leu116Ala, Glu117Ala
  interaction with CR2 (shift of C3d band to the complex form): completely shifted to the complex form; also recorded: no obvious effect on CR2 binding

## mt170: C3d mutant, residue Asn170 changed to Arg (SEQ ID NO:8)
  interaction with CR2 (shift of C3d band to the complex form): clearly less strong; also recorded: still contains an obvious C3d band
As CR2 concentration increases, FIG. 4B
  apparent affinity for CR2 from intensity of the complex bands (densitometry): less apparent affinity for CR2 than wt and mt115

## wt: wild type human C3d (SEQ ID NO:7), CR2 ligand [reference compound]
  interaction with CR2 (shift of C3d band to the complex form): completely shifted to the complex form
